Assay results: PMC5908797, “Evolutionary plasticity of the NHL domain underlies distinct solutions to RNA recognition”

How the values were obtained:
[1] = target: T1, CeLIN41 filamin-NHL (Caenorhabditis elegans, UniProt Q9U489 691-1147); experiment: EMSA; FP: 20 mM HEPES, 200 mM NaCl, 0.05% Tween20, 100 nM Cy5-RNA, 30 min room temp; EMSA: 1x of 2x buffer (20 mM Hepes pH 8, 100 mM KCl, 200 mM NaCl, 0.2 mM EDTA, 20 mM DTT, 2 mM MgCl2, 2 mM CaCl2, 0.2 mM ZnSO4, 60% glycerol, heparin, E. coli tRNA), 5 uM protein stock (1 ul in 8 ul), ~2 nM RNA, room temp; settings: protein: recombinant, tags: N-terminal Strep tag, TEV site, label: 32P (radioactive) body label
T1 sequence: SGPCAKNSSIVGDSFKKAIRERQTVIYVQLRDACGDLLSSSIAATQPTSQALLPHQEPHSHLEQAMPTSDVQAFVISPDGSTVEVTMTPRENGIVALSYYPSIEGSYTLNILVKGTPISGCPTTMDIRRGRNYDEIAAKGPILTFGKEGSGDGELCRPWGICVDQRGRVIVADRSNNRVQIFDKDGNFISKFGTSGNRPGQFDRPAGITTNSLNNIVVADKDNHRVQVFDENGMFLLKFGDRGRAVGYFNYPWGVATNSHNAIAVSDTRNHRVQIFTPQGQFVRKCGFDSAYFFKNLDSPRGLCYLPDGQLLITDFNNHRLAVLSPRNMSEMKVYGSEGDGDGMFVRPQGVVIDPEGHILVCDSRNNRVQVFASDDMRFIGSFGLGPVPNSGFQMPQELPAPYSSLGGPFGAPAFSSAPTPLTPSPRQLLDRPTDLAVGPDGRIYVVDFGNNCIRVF

[2] = target: T1, CeLIN41 filamin-NHL; experiment: EMSA; restored; FP: 20 mM HEPES, 200 mM NaCl, 0.05% Tween20, 100 nM Cy5-RNA, 30 min room temp; EMSA: 1x of 2x buffer (20 mM Hepes pH 8, 100 mM KCl, 200 mM NaCl, 0.2 mM EDTA, 20 mM DTT, 2 mM MgCl2, 2 mM CaCl2, 0.2 mM ZnSO4, 60% glycerol, heparin, E. coli tRNA), 5 uM protein stock (1 ul in 8 ul), ~2 nM RNA, room temp; settings: protein: recombinant; tags: N-terminal Strep tag, TEV site; label: 32P (radioactive) body label; SL I and III restored
[3] = target: T1, CeLIN41 filamin-NHL; experiment: fluorescence polarization; FP: 20 mM HEPES, 200 mM NaCl, 0.05% Tween20, 100 nM Cy5-RNA, 30 min room temp; EMSA: 1x of 2x buffer (20 mM Hepes pH 8, 100 mM KCl, 200 mM NaCl, 0.2 mM EDTA, 20 mM DTT, 2 mM MgCl2, 2 mM CaCl2, 0.2 mM ZnSO4, 60% glycerol, heparin, E. coli tRNA), 5 uM protein stock (1 ul in 8 ul), ~2 nM RNA, room temp; settings: protein: recombinant, tags: N-terminal Strep tag, TEV site, label: 5'-Cy5, hairpin
[4] = target: T1, CeLIN41 filamin-NHL; experiment: EMSA; restored to wild-type level; FP: 20 mM HEPES, 200 mM NaCl, 0.05% Tween20, 100 nM Cy5-RNA, 30 min room temp; EMSA: 1x of 2x buffer (20 mM Hepes pH 8, 100 mM KCl, 200 mM NaCl, 0.2 mM EDTA, 20 mM DTT, 2 mM MgCl2, 2 mM CaCl2, 0.2 mM ZnSO4, 60% glycerol, heparin, E. coli tRNA), 5 uM protein stock (1 ul in 8 ul), ~2 nM RNA, room temp; settings: protein: recombinant; tags: N-terminal Strep tag, TEV site; label: 32P (radioactive) body label; stems restored by compensatory mutations

B1: lin-29A 5'UTR (structured_RNA)
RNA: GUUCCGAACCAAUUCGCCUAGCGAACCUUGGAGUCCAACUCCGUUUUUACUCUUUUCUGAAAAGAGCCUACUAAAUAUUGGAACUAUAAUCAAACUAUUCGAUCAAAUCGACACACCUACUAGAUAUCAAAUAUCUAAUACUGGAACCAAGGCUUGGGUAACCUGAAACUGUGCGAAUUUGGAGCAGAAAUAUU
B1: binds ([1]; four tri-loop stem-loops).

B2: lin-29A mut2-res (structured_RNA)
RNA: GUUCCGAACCAAUUCGCCUAGCGAACCUUGGACUCCAAGUCCGUUUUUACUCUUUUCUGAAAAGAGCCUACUAAAUAUUGGAACUAUAAUCAAACUAUUCCAUCAAAUGGACACACCUACUAGAUAUCAAAUAUCUAAUACUGGAACCAAGGCUUGGGUAACCUGAAACUGUGCGAAUUUGGAGCAGAAAUAUU
B2: binds [2].

B3: L1 (lin-29A SL I, WT LRE) (structured_RNA)
RNA: GGAGUCCAACUCC
B3 was tested, and the Kd ([3]; 5 bp stem, tri-loop) was 1.32 µM.

B4: mab-10 part 2 (structured_RNA)
RNA: UAAAUUCCCGCCCCCUUCGCUCGGAGUCAUAUAAUUUCCUUCUCUUCCUAUCACUUUUUUGUCUAGUUUUCAAAAAACCCCCCAUUUUUCCGGCGGUUUUUCAAAAACCAAUGCCAAGCUCUCAUAUAAUGGGAGUCUAAACACAGUUCGGUUCCAAAACCAACGCCCACGGCCCCGCCCCCAAUUAGAUAAUUUAAAUA
B4: binds ([1]; tri-loop stem-loops).

B5: mab-10 part 2 mut-res (structured_RNA)
RNA: UAAAUUCCCGCCCCCUUCGCUCGGAGUCAUAUAAUUUCCUUCUCUUCCUAUCACUUUUUUGUCUAGUUUUCAAAAAACCCCCCAUUUUUCCGGCGCUUUUUCAAAAAGCAAUGCCAAGCUCUGAUAUAAUCGGAGUCUAAACACAGUUCGGUUCCAAAACCAACGCCCACGGCCCCGCCCCCAAUUAGAUAAUUUAAAUA
B5: binds [4].

B6: Ctrl (5-nt loop) (structured_RNA)
RNA: GCUGACCAACUCC
B6: no binding ([3]; 5 nt loop).

B7: mab-10 part 4 (structured_RNA)
RNA: UCGCAUCCAAUGCAUUGCAAGUUGAUUGCUUUUAUAAAUUUUUGGGUCUCGAAGCGAAAAGCCCAUAGGAUUUUCACAAAAAUUUUGCAUUUAAUGCAGUGAAAAUUCAAAAAAUUCAAAGAUUUUUCUGAAUAGAUCAAAUUUUCAAAUUUUCCGGUCAUUCGAAAUGGCCUAAUUUGCUCCAAAAAUUUGAAUAAUCC
B7: binds ([1]; tri-loop stem-loops).

B8: mab-10 part 4 mut-res (structured_RNA)
RNA: UCGGAUCCAAUCCAUUGCAAGUUGAUUGCUUUUAUAAAUUUUUGGGUCUCGAAGCGAAAAGCCCAUAGGAUUUUCACAAAAAUUUUGGAUUUAAUCCAGUGAAAAUUCAAAAAAUUCAAAGAUUUUUCUGAAUAGAUCAAAUUUUCAAAUUUUCCGGUGAUUCGAAAUCGCCUAAUUUGCUCCAAAAAUUUGAAUAAUCC
B8: binds [4].

B9: mab-10 condensed 3'UTR (structured_RNA)
RNA: UCUAGUUUUCAAAAAACCCCCCAUUUUUCCGGCGGUUUUUCAAAAACCAAUGCCAAGCUCUCAUAUAAUGGGAGUCUAAACACAGUUCGGUUCCAAAACUGAAAAACUUCAAUUUCGCAUCCAAUGCAUUGCAAGUUGAUUGCUUUUCACAAAAAUUUUGCAUUUAAUGCAGUGAAAAUUUUCCGGUCAUUCGAAAUGGCCUAAUUUGCUCCAAAAA
B9: binds ([1]; five tri-loop stem-loops).

B10: mab-10 condensed 3'UTR mut (structured_RNA)
RNA: UCUAGUUUUCAAAAAACCCCCCAUUUUUCCGGCGCUUUUUCAAAAACCAAUGCCAAGCUCUGAUAUAAUGGGAGUCUAAACACAGUUCGGUUCCAAAACUGAAAAACUUCAAUUUCGGAUCCAAUGCAUUGCAAGUUGAUUGCUUUUCACAAAAAUUUUGGAUUUAAUGCAGUGAAAAUUUUCCGGUGAUUCGAAAUGGCCUAAUUUGCUCCAAAAA
B10: no binding ([1]; five stems disrupted).

B11: mab-10 condensed 3'UTR mut-res (structured_RNA)
RNA: UCUAGUUUUCAAAAAACCCCCCAUUUUUCCGGCGCUUUUUCAAAAAGCAAUGCCAAGCUCUGAUAUAAUCGGAGUCUAAACACAGUUCGGUUCCAAAACUGAAAAACUUCAAUUUCGGAUCCAAUCCAUUGCAAGUUGAUUGCUUUUCACAAAAAUUUUGGAUUUAAUCCAGUGAAAAUUUUCCGGUGAUUCGAAAUCGCCUAAUUUGCUCCAAAAA
B11: binds ([1]; five stems restored).
